Assays:
[1] = target: T1, recombinant human c-Kit (human, UniProt P10721 26-520, limits assumed); experiment: SPR, BIAcore T200, antibody on chip, recombinant human antigen as analyte, steady state analysis
Description: (§1) A direct binding assay was performed to characterize the binding of the engineered antibodies against their antigen. Kinetic binding affinity constants (KD) were measured on protein-A captured protein using recombinant human antigens as analyte. Measurements were conducted on a BIAcore® T200 (GE Healthcare, Glattbrugg, Switzerland) at room temperature. […] To serve as reference, one flow cell was blank immobilized. Binding data were acquired by subsequent injection of analyte dilutions series on the reference and measuring flow cell. Zero concentration samples (running buffer only) were included to allow double referencing during data evaluation. For data evaluation, doubled referenced sensograms were used and analyzed by steady state analysis to generate the equilibrium dissociation constant (KD).

[2] = target: recombinant human IL-17 (human, UniProt Q16552 24-155, limits assumed); experiment: SPR, BIAcore T200, antibody on chip, recombinant human antigen as analyte, steady state analysis; first value taken for antibody 1 arm (IL-17); IL-17 arm (Antibody 1), first value of the cell
Description: as §1

[3] = target: T2, recombinant human HER3 (human, UniProt P21860 20-643, limits assumed); experiment: SPR, BIAcore T200, antibody on chip, recombinant human antigen as analyte, steady state analysis; second value taken for antibody 2 arm (HER3); HER3 arm (Antibody 2), second value of the cell
Description: as §1

[4] = target: T1, recombinant human c-Kit; experiment: SPR, BIAcore T200, antibody on chip, recombinant human antigen as analyte, steady state analysis; second value taken for antibody 2 arm (c-Kit); c-Kit arm (Antibody 2), second value of the cell
Description: as §1

[5] = target: T1, recombinant human c-Kit; experiment: SPR, BIAcore T200, antibody on chip, recombinant human antigen as analyte, steady state analysis; first value taken for antibody 1 arm (c-Kit); c-Kit arm (Antibody 1), first value of the cell
Description: as §1

[6] = target: T2, recombinant human HER3; experiment: SPR, BIAcore T200, antibody on chip, recombinant human antigen as analyte, steady state analysis
Description: as §1

Kd [2] [nM]	Kd [3] [nM]	Binder	also measured
		anti-c-Kit antibody, parental IgG1 (antibody, V domains shown, Parental, unmutated IgG1, VH3/Vk1, made in-house) VH: EVQLVESGGGLVQPGGSLRLSCAASGFAFSGYYMAWVRQAPGKGLEWVANINYPGSSTYYLDSVKGRFTISRDNAKNSLYLQMNSLRAEDTAVYYCARGDYYGTTYWYFDVWGQGTTVTVSS VL: DIQMTQSPSSLSASVGDRVTITCRASQSISSYLNWYQQKPGKAPKLLIYYTSRLQSGVPSRFSGSGSGTDFTLTISSLQPEDFATYYCQQGRRLWSFGGGTKVEIKR	Kd [1]: 20 nM
0.01	4	Mutated IL-17/Mutated HER3 (b) heterodimeric antibody (bispecific antibody, IgG1 bispecific) heavy 1: not shown light 1: AIQLTQSPSSLSASVGDRVTITCRPSQGINWELAWYQDKPGKAPKLLIYDASSLEQGVPSRFSGSGSGTDFTLTISSLQPEDFATYYCQQFNSYPLTFGGGTKVEIKRTVAAPSVFIFPPSDEKLKSGTASVVCLLNNFYPREAKVQWKVDNALQSGNSQESVTEQDSDDSTYSLSSTLTLSKADYEKHKVYACEVTHQGLSSPVTKSFNRGEC heavy 2: not shown light 2: DIQMTQSPSSLSASVGDRVTITCRASQGISNWLAWYQKKPGKAPKLLIYGASSLQSGVPSRFSGSGSGTDFTLTISSLQPEDFATYYCQQYSSFPTTFGQGTKVEIKRTVAAPSVFIFPPSDEDLKSGTASVVCLLNNFYPREAKVQWKVDNALQSGNSQESVTEQDSKDSTYSLSSTLTLSKADYEKHKVYACEVTHQGLSSPVTKSFNRGEC	
0.07		Mutated IL-17/Mutated c-Kit heterodimeric antibody (bispecific antibody, IgG1 bispecific) heavy 1: not shown light 1: AIQLTQSPSSLSASVGDRVTITCRPSQGINWELAWYQDKPGKAPKLLIYDASSLEQGVPSRFSGSGSGTDFTLTISSLQPEDFATYYCQQFNSYPLTFGGGTKVEIKRTVAAPSVFIFPPSDEKLKSGTASVVCLLNNFYPREAKVQWKVDNALQSGNSQESVTEQDSDDSTYSLSSTLTLSKADYEKHKVYACEVTHQGLSSPVTKSFNRGEC heavy 2: not shown light 2: DIQMTQSPSSLSASVGDRVTITCRASQSISSYLNWYQKKPGKAPKLLIYYTSRLQSGVPSRFSGSGSGTDFTLTISSLQPEDFATYYCQQGRRLWSFGGGTKVEIKRTVAAPSVFIFPPSDEDLKSGTASVVCLLNNFYPREAKVQWKVDNALQSGNSQESVTEQDSKDSTYSLSSTLTLSKADYEKHKVYACEVTHQGLSSPVTKSFNRGEC	Kd [4]: 20 nM
	0.4	Mutated c-Kit/Mutated HER3 (a) heterodimeric antibody (bispecific antibody, IgG1 bispecific) heavy 1: not shown light 1: DIQMTQSPSSLSASVGDRVTITCRASQSISSYLNWYQKKPGKAPKLLIYYTSRLQSGVPSRFSGSGSGTDFTLTISSLQPEDFATYYCQQGRRLWSFGGGTKVEIKRTVAAPSVFIFPPSDEDLKSGTASVVCLLNNFYPREAKVQWKVDNALQSGNSQESVTEQDSKDSTYSLSSTLTLSKADYEKHKVYACEVTHQGLSSPVTKSFNRGEC heavy 2: not shown light 2: DIQMTQSPSSLSASVGDRVTITCRASQGISNWLAWYQDKPGKAPKLLIYGASSLQSGVPSRFSGSGSGTDFTLTISSLQPEDFATYYCQQYSSFPTTFGQGTKVEIKRTVAAPSVFIFPPSDEKLKSGTASVVCLLNNFYPREAKVQWKVDNALQSGNSQESVTEQDSDDSTYSLSSTLTLSKADYEKHKVYACEVTHQGLSSPVTKSFNRGEC	Kd [5]: 22 nM
		anti-HER3 antibody, parental IgG1 (antibody, V domains shown, Parental, unmutated IgG1) VH: EVQLLESGGGLVQPGGSLRLSCAASGFTFSSYAMSWVRQAPGKGLEWVSVTGAVGRSTYYPDSVKGRFTISRDNSKNTLYLQMNSLRAEDTAVYYCARWGDEGFDIWGQGTLVTVSS VL: DIQMTQSPSSLSASVGDRVTITCRASQGISNWLAWYQQKPGKAPKLLIYGASSLQSGVPSRFSGSGSGTDFTLTISSLQPEDFATYYCQQYSSFPTTFGQGTKVEIKR	Kd [6]: 1 nM
